The target of assay [1] is HIV-1 HXB2 Env (gp41 N-trimer region) (HIV-1 HXB2) (UniProt P04578). Briefly: cell-based or functional assay.
For assay [2], the target named is HIV-1 JRFL Env (gp41 N-trimer region) (HIV-1 JRFL). The experiment in a line: cell-based or functional assay.

In assay [1], “Ub-C37 (from UniProt P0CG48 1-76; P04578 625-661)” displayed an IC50, viral infectivity HXB2 of 6.8 nM. The IC50, viral infectivity JRFL in assay [2] was determined as 37.7 nM.

With MBP-H6 (from UniProt P0AEX9 27-392), the no inhibition of cell-cell fusion or viral infectivity (HXB2 Env) up to the stated concentration in assay [1] is > 1 µM. Further, the no inhibition of viral infectivity (JRFL Env) up to the stated concentration in assay [2] is > 10 µM.

Turning to BPTI-H6 (from UniProt P00974 36-93), in assay [1], the no inhibition of cell-cell fusion or viral infectivity (HXB2 Env) up to the stated concentration is > 1 µM. Also, the no inhibition of viral infectivity (JRFL Env) up to the stated concentration in assay [2] was > 1 µM.

As for GFP-H6, the no inhibition of cell-cell fusion or viral infectivity (HXB2 Env) up to the stated concentration in assay [1] was > 1 µM. In assay [2], the no inhibition of viral infectivity (JRFL Env) up to the stated concentration is > 1 µM.

Values taken from patent US20070122429A1, “Designed antigens to elicit neutralizing antibodies against sterically restricted antigen and method of using same” (priority 2005, published 2007).
